Measurements taken from patent US12065471B2, “B*44 restricted peptides for use in immunotherapy against cancers and related methods” (Immatics Biotechnologies GmbH, priority 2018, dated 2024).

Target: HLA-B*44:05 (Homo sapiens, UniProt P01889, A223V/A65T/A93T/A95T/D201E/D98Y/E176V/E187L/E204Q/E69K/G107R/H137Y/K202T/L105A/L119I/N104T/N87E/Q56L/Q94N/R106L/R155S/R180D/S101N/S121R/S35A/S48T/T118I/V36M/W191S/Y91S)
Test: MHC binding assay (UV-ligand exchange, β2m ELISA, peptide exchange yield)
Conditions: binding to HLA-B*44:05
Text: Candidate peptides for T cell-based therapies according to the present invention were further tested for their MHC binding capacity (affinity). The individual peptide-MHC complexes were produced by UV-ligand exchange, where a UV-sensitive peptide is cleaved upon UV-irradiation and exchanged with the peptide of interest as analyzed. Only peptide candidates that can effectively bind and stabilize the peptide-receptive MHC molecules prevent dissociation of the MHC complexes. To determine the yield of the exchange reaction, an ELISA was performed based on the detection of the light chain (β2m) of stabilized MHC complexes. The assay was performed as generally described in Rodenko et al. (Rodenko et al., 2006)
96 well MAXISorp plates (NUNC) were coated over night with 2 μg/ml streptavidin in PBS at room temperature, washed 4× and blocked for 1 h at 37° C. in 2% BSA containing blocking buffer. Refolded HLA-A*02:01/MLA-001 monomers served as standards, covering the range of 15-500 ng/ml. Peptide-MHC monomers of the UV-exchange reaction were diluted 100-fold in blocking buffer. Samples were incubated for 1h at 37° C., washed four times, incubated with 2 μg/ml HRP conjugated anti-β2m for 1h at 37° C., washed again and detected with TMB solution that is stopped with […]. Absorption was measured at 450 nm.

Peptide exchange (MHC class I binding score, peptide exchange yield), ++ (>20% = ++):
239 (DEDYTYLIL; listed as Homo sapiens) [compound 239]
154 (NEAGEMIKHY; listed as Homo sapiens) [compound 154]
97 (ELVHMINW; listed as Homo sapiens) [compound 97]
302 (EGEDAHLTQY; listed as Homo sapiens) [compound 302]
207 (LEGGGRGGEF; listed as Homo sapiens) [compound 207]
373 (REDPIVYEI; listed as Homo sapiens) [compound 373]
229 (AEDLEKKYA; listed as Homo sapiens) [compound 229]
202 (RELPLVLLA; listed as Homo sapiens) [compound 202]
414 (AEGYLDLDGI; listed as Homo sapiens) [compound 414]
355 (SETSTGTSV; listed as Homo sapiens) [compound 355]
208 (SEFLLRIF; listed as Homo sapiens) [compound 208]
342 (SENKKWVEF; listed as Homo sapiens) [compound 342]
38 (DEVRFFKGNKY; listed as Homo sapiens) [compound 38]
259 (IEVSSPITLQAL; listed as Homo sapiens) [compound 259]
286 (DELSVGRY; listed as Homo sapiens) [compound 286]
65 (SESMVESKF; listed as Homo sapiens) [compound 65]

Peptide exchange (MHC class I binding score, peptide exchange yield), +++ (>50 = +++):
386 (EESDYITHY; listed as Homo sapiens) [compound 386]
50 (SEYVHSSFSGF; listed as Homo sapiens) [compound 50]
21 (SEAKEIKSQL; listed as Homo sapiens) [compound 21]
341 (HELESENKKW; listed as Homo sapiens) [compound 341]
368 (KEKVPGITI; listed as Homo sapiens) [compound 368]
337 (VEVIPEGAML; listed as Homo sapiens) [compound 337]
174 (DENDAGNLITF; listed as Homo sapiens) [compound 174]
200 (KELSVFKKF; listed as Homo sapiens) [compound 200]
290 (AECILSKRL; listed as Homo sapiens) [compound 290]
437 (HEDPSGSLHL; listed as Homo sapiens) [compound 437]
218 (REAEEKEAQL; listed as Homo sapiens) [compound 218]
372 (EEYKFPSLF; listed as Homo sapiens) [compound 372]
273 (TEFELLHQV; listed as Homo sapiens) [compound 273]
117 (SEVPVDSHY; listed as Homo sapiens) [compound 117]
279 (GEPVTQPGSLL; listed as Homo sapiens) [compound 279]
178 (MEGAALLKIF; listed as Homo sapiens) [compound 178]
454 (SESSSAFQF; listed as Homo sapiens) [compound 454]
427 (AEMLGSVVGNW; listed as Homo sapiens) [compound 427]
209 (AEGEPPPAL; listed as Homo sapiens) [compound 209]
426 (AESLFREAL; listed as Homo sapiens) [compound 426]
423 (KEAINLLKNY; listed as Homo sapiens) [compound 423]
415 (EEAGFPLAY; listed as Homo sapiens) [compound 415]
193 (RELRPLFDRQW; listed as Homo sapiens) [compound 193]
122 (GESVSWHLF; listed as Homo sapiens) [compound 122]
321 (AENPLNIFYI; listed as Homo sapiens) [compound 321]
362 (SEVEYINKY; listed as Homo sapiens) [compound 362]
98 (SEESAGPLL; listed as Homo sapiens) [compound 98]
172 (RENPGMFSW; listed as Homo sapiens) [compound 172]
141 (SEKWFRMGF; listed as Homo sapiens) [compound 141]
162 (EAYDIELNKW; listed as Homo sapiens) [compound 162]
331 (KELEATKQYL; listed as Homo sapiens) [compound 331]

Peptide exchange (MHC class I binding score, peptide exchange yield), ++++ (>75% = ++++):
305 (AEKNRRDAETW; listed as Homo sapiens) [compound 305]
169 (KEHNSSVPWSS; listed as Homo sapiens) [compound 169]
114 (VEVNGVPRW; listed as Homo sapiens) [compound 114]
417 (EESFRCLPEW; listed as Homo sapiens) [compound 417]
292 (HELALRQTV; listed as Homo sapiens) [compound 292]
455 (QESVHVASYYW; listed as Homo sapiens) [compound 455]
124 (NENLDYAIL; listed as Homo sapiens) [compound 124]
365 (NESGKAFNY; listed as Homo sapiens) [compound 365]
441 (QEVAQVASAIL; listed as Homo sapiens) [compound 441]
326 (RELLDFSSW; listed as Homo sapiens) [compound 326]
403 (QESVHVASY; listed as Homo sapiens) [compound 403]
249 (YEMAIYKKY; listed as Homo sapiens) [compound 249]
369 (KELEERMLHW; listed as Homo sapiens) [compound 369]
304 (RELGFTEATGW; listed as Homo sapiens) [compound 304]
192 (LEIMTNLVTL; listed as Homo sapiens) [compound 192]
